Experimental data as given in patent US20260151453A1, “COMBINATION THERAPY FOR THE TREATMENT OF CANCER” (PEPTOMYC, S.L., priority 2022, published 2026).

What was measured:
MDA-MB-231 cells [1] = assay: Viability of MDA-MB-231 TNBC cells treated alone and in combination for 5 days; synergy score by SynergyFinder.org; format: cell-based; conditions: single agent, 5 days (FIG. 1A)
Experimental: Triple negative breast cancer (TNBC) cell lines MDA-MB-231, SUM149 and MX-1 were treated with increasing concentrations of Olaparib or Talazoparib and the Omomyc peptide sequence SEQ ID NO: 4, alone and in combination, for 5 days.
Then synergy score was calculated by SynergyFinder.org after having carried out 3 biological replicates.
(§1) Synergy scores can be interpreted as the average excess response due to drug interactions. Synergy scores close to 0 give limited confidence in synergy or antagonism. So, when the synergy scores are: less than −10, the interaction between two drugs is likely to be antagonistic. From −10 to 10, the interaction between two drugs is likely to be additive. Greater than 10, the interaction between two drugs is likely to be synergistic.

[2] = tested on: SUM149 cell-derived xenograft (CDX); assay: SUM149 cell-derived xenograft (CDX) model, orthotopic in mammary fat-pad, tumour growth; format: in vivo; conditions: SUM149 CDX mice, 4 weeks; Omomyc 50 mg/kg intravenous once a week; Olaparib 50 mg/kg oral gavage 6 times a week; preliminary
Experimental: SUM149 cell-derived xenograft (CDX) model mice were used for in vivo studies. Each mouse was inoculated orthotopically in the mammary fat-pad with 5 million cells. As the tumours reached 100 mm^3, mice were randomised in 4 treatment groups. Specifically, mice were treated with Omomyc once a week (50 mg/kg, intravenous), with Olaparib 6 times a week (50 mg/kg oral gavage), with the combination of the 2 drugs (combo) or with vehicle alone for 4 weeks. Relative volume was calculated as a percentage of tumour growth from the day of randomization and beginning of treatments. At end-point the average of the groups were respectively: vehicle 901.8%, Omomyc 663.6%, Olaparib 623.6%, and combination 335.8%.

MDA-MB-231 cells [3] = assay: Microarray analysis of gene expression in MDA-MB-231 cells; format: cell-based; conditions: data not shown
MIA-PACA-2 cells = assay: Viability of PDAC MIA-PACA-2 cells treated alone and in combination for 5 days; synergy score by SynergyFinder.org; format: cell-based; conditions: MIA-PACA-2 cells, Omomyc added to Olaparib
Excerpt: as §1
Pancreatic ductal adenocarcinoma (PDAC) MIA-PACA-2 cells were treated with increasing concentrations of Olaparib and the Omomyc peptide sequence SEQ ID NO: 4 alone and in combination, for 5 days.
Then synergy score was calculated by SynergyFinder.org after having carried out 3 biological replicates as described above.

B1: Omomyc: Purified recombinant polypeptide of SEQ ID NO: 4: mutated bHLHZip domain of Myc (E61T, E68I, R74Q, R75N) with N-terminal methionine (protein)
chain: TEENVKRRTHNVLERQRRNELKRSFFALRDQIPELENNEKAPKVVILKKATAYILSVQAETQKLISEIDLLRKQNEQLKHKLEQLRNSCA
viability of cells (MDA-MB-231 cells [1]): significantly reduces viability
Relative volume, percentage of tumour growth from the day of randomization (group average at end-point) [2]: 663.6%
expression of homologous recombination (HR-) and BRCA1/2-deficiency related genes and pathways (MDA-MB-231 cells [3]): reduces the expression
reversal of olaparib resistance (MIA-PACA-2 cells): able to revert olaparib resistance
